In article PMC9059122:

Tests used:
[1] = molecular target: human melanocortin-3 receptor (human) (UniProt P41968)
[2] = molecular target: human melanocortin-5 receptor (human) (UniProt P33032)
[3] = molecular target: human melanocortin-1 receptor (human) (UniProt Q01726)
human melanocortin-1 receptor (human), sequence (Q01726 whole entry): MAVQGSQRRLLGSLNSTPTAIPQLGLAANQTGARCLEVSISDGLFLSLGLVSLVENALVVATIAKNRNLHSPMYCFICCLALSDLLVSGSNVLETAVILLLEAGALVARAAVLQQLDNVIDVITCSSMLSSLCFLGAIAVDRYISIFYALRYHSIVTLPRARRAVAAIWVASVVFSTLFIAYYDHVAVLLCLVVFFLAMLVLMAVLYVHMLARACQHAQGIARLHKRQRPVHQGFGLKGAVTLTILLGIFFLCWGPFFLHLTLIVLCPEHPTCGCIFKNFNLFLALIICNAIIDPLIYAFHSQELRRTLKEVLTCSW

human melanocortin-5 receptor (human), sequence (P33032 whole entry): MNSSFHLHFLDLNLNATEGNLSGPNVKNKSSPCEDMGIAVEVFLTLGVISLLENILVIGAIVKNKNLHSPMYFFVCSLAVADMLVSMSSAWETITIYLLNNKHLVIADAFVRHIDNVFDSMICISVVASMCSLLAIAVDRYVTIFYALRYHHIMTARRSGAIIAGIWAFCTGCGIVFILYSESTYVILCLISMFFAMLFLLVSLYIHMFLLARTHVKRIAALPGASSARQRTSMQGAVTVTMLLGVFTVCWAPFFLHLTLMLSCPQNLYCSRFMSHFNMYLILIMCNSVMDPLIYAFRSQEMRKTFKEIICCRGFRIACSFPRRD
human melanocortin-3 receptor (human), sequence (P41968 whole entry): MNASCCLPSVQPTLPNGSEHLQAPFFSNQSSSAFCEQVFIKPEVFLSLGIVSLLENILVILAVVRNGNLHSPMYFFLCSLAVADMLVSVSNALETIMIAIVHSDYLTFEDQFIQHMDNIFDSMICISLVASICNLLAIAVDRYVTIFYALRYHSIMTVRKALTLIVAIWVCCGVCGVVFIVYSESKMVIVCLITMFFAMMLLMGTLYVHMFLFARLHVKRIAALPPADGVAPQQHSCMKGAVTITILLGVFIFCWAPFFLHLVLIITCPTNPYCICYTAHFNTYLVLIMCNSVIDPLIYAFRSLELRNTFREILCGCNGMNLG

| Substance | agonist potency (EC50), cAMP split-luciferase sensor dynamic assay [1] | agonist potency (EC50), cAMP split-luciferase sensor dynamic assay [2] | agonist potency (EC50), cAMP split-luciferase sensor dynamic assay [3] |
| --- | --- | --- | --- |
| analogue 11 (Tyr-Val-Nle-Gly-His-D-Nal(2′)-Arg-Trp-Asp-Arg-Phe-Gly-NH2) (peptide) | 6.2 nM | 3.8 nM | 0.16 nM |
| analogue 13 (Tyr-Val-Nle-Gly-Pro-D-Nal(2′)-Arg-Trp-Asp-Arg-Phe-Gly-NH2) (peptide) |  | 4.1 nM | 1.2 nM |
